From article PMC6142190, “FIH permits NAA10 to catalyze the oxygen-dependent lysyl-acetylation of HIF-1α” (Redox Biology, 2018)

Biological target: T1, GST-FIH (human, UniProt Q9NWT6 1-349)
T1 construct: human FIH, cDNA NM_017902.2 in pGEX; also called recombinant FIH
Experiment: pull-down; GST-FIH and His-NAA10 WT or W38F in binding buffer, 4 °C, 1 h; nickel affinity beads; Western blot
Settings: both partners purified

T1 sequence (Q9NWT6 whole entry): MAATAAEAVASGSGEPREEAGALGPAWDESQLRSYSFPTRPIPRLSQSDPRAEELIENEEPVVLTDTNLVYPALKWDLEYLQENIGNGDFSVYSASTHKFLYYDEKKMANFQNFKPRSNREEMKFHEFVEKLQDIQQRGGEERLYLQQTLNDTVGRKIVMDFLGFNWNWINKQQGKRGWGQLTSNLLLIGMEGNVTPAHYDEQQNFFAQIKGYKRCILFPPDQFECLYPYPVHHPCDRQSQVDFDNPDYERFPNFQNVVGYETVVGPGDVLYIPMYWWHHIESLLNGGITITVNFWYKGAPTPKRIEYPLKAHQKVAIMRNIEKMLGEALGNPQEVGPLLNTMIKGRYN

B1: His(6)-NAA10 W38F (enzyme, human, UniProt P41227-1 1-235, looked up)
chain: MNIRNARPEDLMNMQHCNLLCLPENYQMKYYFYHGLSFPQLSYIAEDENGKIVGYVLAKMEEDPDDVPHGHITSLAVKRSHRRLGLAQKLMDQASRAMIENFNAKYVSLHVRKSNRAALHLYSNTLNFQISEVEPKYYADGEDAYAMKRDLTQMADELRRHLELKEKGRHVVLGAIENKVESKGNSPPSSGEACREEKGLAAEDSGGDSKDLSEVSETTESTDVKDSSEASDSAS
notes: human NAA10, cDNA NM_003491 in pET-28c-HIS, with W38F by PCR-based mutagenesis; also called W38F mutant; source: E. coli BL21, purified (Nickel-NTA beads, eluted with imidazole)
B1: binds.
